{
  "source": "the DeepSol protein solubility set",
  "data": [
    {"test": "soluble on expression in E. coli; label from the status in PepcDB or PDB records", "values": [
      {"sequence": "MNDPREILAVDPYNNITSDEEDEQAIARELEFMERKRQALVERLKRKQEFKKPQDPNFEAIEVPQSPTKNRVKVGSHNATQQGTKFEGSNINEVRLSQLQQQPKPPASTTTYFMEKFQNAKKNEDKQIAKFESMMNARVHTFSTDEKKYVPIITNELESFSNLWVKKRYIPEDDLKRALHEIKILRLGKLFAKIRPPKFQEPEYANWATVGLISHKSDIKFTSSEKPVKFFMFTITDFQHTLDVYIFGKKGVERYYNLRLGDVIAILNPEVLPWRPSGRGNFIKSFNLRISHDFKCILEIGSSRDLGWCPIVNKKTHKKCGSPINISLHKCCDYHREVQFRGTSAKRIELNGGYALGAPTKVDSQPSLYKAKGENGFNIIKGTRKRLSEEEERLKKSSHNFTNSNSAKAFFDEKFQNPDMLANLDNKRRKIIETKKSTALSRELGKIMRRRESSGLEDKSVGERQKMKRTTESALQTGLIQRLGFDPTHGKISQVLKSSVSGSEPKNNLLGKKKTVINDLLHYKKEKVILAPSKNEWFKKRSHREEVWQKHFGSKETKETSDGSASDLEII", "soluble on expression in E. coli": "soluble"},
      {"sequence": "MAEYKFYYFNGRGLGDVSRQLFALSGTKYEDIRIEHADWPAQKPKMPFGQMPVLELSSGLQIPQSMAIARYLAKKFGYAGKTDEEAALADALIDQFKDFYAEIKPYYYAKIGVLQNDTEEEKKKTLIPARDKFLTIIGKFLKLSISGFLFSGGLTYADLMICDNMRTLIAWWPEYLNEYPDIKAWYQKVDGIPEIRKHLESSPDKGF", "soluble on expression in E. coli": "soluble"},
      {"sequence": "MNNQFIQRVIFDWNRIDNDSYLKGIEAFKGIEKLDFNKPITFFVGENGSGKSTLLEALAVAHGFNPEGGTKNYVFSTHDTHSELCDAIRIAKGYRKEKWGYFLRAESFYNVATQEEEYADITHPSAKYHEKSHGESFLALAQNNMNPNGLYLFDEPEAALSPQRQLTLLMQIYRCAKEGAQFIIVTHSPILLGIPDADIYCFDNGCIHLCEYEDTESYQVTEMFINNRQMLLDRLLTD", "soluble on expression in E. coli": "not soluble"},
      {"sequence": "MDRNEVRHAWDSVSETYAERRDPTGSDAALLEDLLERLPEAPTVLDVGCGDGARTLANLPPRSVGLDFSRAGLDLAAETVPDSRLVQGDMGSLPVTTDSVDAITAYHAVFHVQRDQHPEVYREFARVLRPGGTVLMTLPSGQFETVRRGWMGGSMFFSAPGRRATLDQLADAGFTETETVTATDPLGSDSEFVFATLADALEHHHHHH", "soluble on expression in E. coli": "soluble"},
      {"sequence": "MASGAGGVGGGGGGKIRTRRCHQGPIKPYQQGRQQHQGILSRVTESVKNIVPGWLQRYFNKNEDVCSCSTDTSEVPRWPENKEDHLVYADEESSNITDGRITPEPAVSNTEEPSTTSTASNYPDVLTRPSLHRSHLNFSMLESPALHCQPSTSSAFPIGSSGFSLVKEIKDSTSQHDDDNISTTSGFSSRASDKDITVSKNTSLPPLWSPEAERSHSLSQHTATSSKKPAFNLSAFGTLSPSLGNSSVLKTSQLGDSPFYPGKTTYGGAAAAVRQSKLRNTPYQAPVRRQMKAKQLSAQSYGVTSSTARRILQSLEKMSSPLADAKRIPSIVSSPLNSVDSQYPPVQRLMTPKPVSIATNRSVYFKPSLTPSGEFRKTNQRIDKKCSTGYEKNMTPGQNREQRESGFSYPNFSLPAANGLSSGVGGGGGKMRRERTRFVASKPLEEEEMEVPVLPKISLPITSSSLPTFNFSSPEITTSSPSPINSSQALTNKVQMTSPSSTGSPMFKFSSPIVKSTEANVLPPSSIGFTFSVPVAKTAELSGSSSTLEPIISSSAHHVTTVNSTNCKKTPPEDCEGPFRPAEILKEGSVLDILKSPGFASPKIDSVAAQPTATSPVVYTRPAISSFSSSGIGFGESLKAGSSWQCDTCLLQNKVTDNKCIACQAAKLSPRDTAKQTGIETPNKSGKTTLSASGTGFGDKFKPVIGTWDCDTCLVQNKPEAIKCVACETPKPGTCVKRALTLTVVSESAETMTASSSSCTVTTGTLGFGDKFKRPIGSWECSVCCVSNNAEDNKCVSCMSEKPGSSVPTSSSSTVPVSLPSGGSLGLEKFKKPEGSWDCELCLVQNKADSTKCLACESAKPGTKSGFKGFDTSSSSSNSAASSSFKFGVSSSSSGPSQTLTSTGNFKFGDQGGFKIGVSSDSGSINPMSEGFKFSKPIGDFKFGVSSESKPEEVKKDSKNDNFKFGLSSGLSNPVSLTPFQFGVSNLGQEEKKEELPKSSSAGFSFGTGVINSTPAPANTIVTSENKSSFNLGTIETKSASVAPFTCKTSEAKKEEMPATKGGFSFGNVEPASLPSASVFVLGRTEEKQQEPVTSTSLVFGKKADNEEPKCQPVFSFGNSEQTKDENSSKSTFSFSMTKPSEKESEQPAKATFAFGAQTSTTADQGAAKPVFSFLNNSSSSSSTPATSAGGGIFGSSTSSSNPPVATFVFGQSSNPVSSSAFGNTAESSTSQSLLFSQDSKLATTSSTGTAVTPFVFGPGASSNNTTTSGFGFGATTTSSSAGSSFVFGTGPSAPSASPAFGANQTPTFGQSQGASQPNPPGFGSISSSTALFPTGSQPAPPTFGTVSSSSQPPVFGQQPSQSAFGSGTTPNSSSAFQFGSSTTNFNFTNNSPSGVFTFGANSSTPAASAQPSGSGGFPFNQSPAAFTVGSNGKNVFSSSGTSFSGRKIKTAVRRRK", "soluble on expression in E. coli": "soluble"},
      {"sequence": "MLTRLAAVLEERKNAAPDSSYVASLYHKGLNKILEKVGEESVETIIAAKDAAASGDCQDLIYETADLWFHSLVMLSALGQHPQAVLDELERRFG", "soluble on expression in E. coli": "soluble"},
      {"sequence": "GMTTKDISRPVCILGLGLIGGSLLRDLHAANHSVFGYNRSRSGAKSAVDEGFDVSADLEATLQRAAAEDALIVLAVPMTAIDSLLDAVHTHAPNNGFTDVVSVKTAVYDAVKARNMQHRYVGSHPMAGTANSGWSASMDGLFKRAVWVVTFDQLFDGTDINSTWISIWKDVVQMALAVGAEVVPSRVGPHDAAAARVSHLTHILAETLAIVGDNGGALSLSLAAGSYRDSTRVAGTDPGLVRAMCESNAGPLVKALDEALAILHEAREGLTAEQPNIEQLADNGYRSRIRYEARSGQRRAKESVSPTITSSRPVLRLHPGTPNWEKQLIHAETLGARIEVF", "soluble on expression in E. coli": "soluble"},
      {"sequence": "MSLVAMITTVVGSYPVVKKEETFLDKVKKVFGLYDEYKYAIERAVKDQVKAGVNIISDGQVRGDMVEIFTNNMYGFDGKRVVGRVEFIKPITLKDILYAKSIAKKLNPNVEIKGIITGPCTIASSVRVESCYSDNRDENLIYDIAKALRKEVEALKKHVPIIQIDEPILSTGMYDFDVARKAIDIIVDGLNIKFAMHVCGNVYNIIDELNKFNVDILDHEFASNKKNLVILESMEKKVGFGCVNTKVKKVESVEEIKSLIEEGIEILKNNEKLNKNLSDNILIDPDCGMRLLPIDVAFNKLKNMVEATKLIEGHHHHHH", "soluble on expression in E. coli": "soluble"},
      {"sequence": "MGSDKIHHHHHHVKLAAVDIGSNAIRFQVSKILEYNGMIMFKKMEYVRFPLRLGEDVFRLGMISAEKEMKFIKLIQTFKNLFELYEVDDYMISATSAMRESKNGRDIVLKVKGLVGVDIDIIDGDKEAELINTVLHNELDDNSYIHIDVGGGSTELNLFVNRKKIAARSFKIGSVRRLQGLDAPEEWESMKQWVKDNIDKLPKPVTAIGTGGNIGKIFELGTTEKSKKDKRMISLKKIEEVQHNISQYSYEDRINVLMLNSDRADVIIPASEIYTSVMEFAKAKNMLVPEVGLKDGLMLMLYERNKHLHITDLDSIRNVNKYQK", "soluble on expression in E. coli": "not soluble"},
      {"sequence": "MSRYGRYGGETKVYVGNLGTGAGKGELERAFSYYGPLRTVWIARNPPGFAFVEFEDPRDAEDAVRGLDGKVICGSRVRVELSTGMPRRSRFDRPPARRPFDPNDRCYECGEKGHYAYDCHRYSRRRRSRSRSRSHSRSRGRRYSRSRSRSRGRRSRSASPRRSRSISLRRSRSASLRRSRSGSIKGSRYFQSPSRSRSRSRSISRPRSSRSKSRSPSPKRSRSPSGSPRRSASPERMD", "soluble on expression in E. coli": "not soluble"},
      {"sequence": "MCPPYGANKFSRKKVMYVIVDIQGQQMKVEQGRRLFVHHIKDVESGASVEFDKVLLVDNNGAITVGSPLVEGAKVVCEVLTPLVKGDKVLIFHKKRRKGYRKLNGHRQQFTEILVKEVVA", "soluble on expression in E. coli": "not soluble"},
      {"sequence": "RDVVGVGFGPANLALAIAIEEHNAECPPRERISAQFFEKQDRFGWHPGMLLDGATMQIAFPKDLVTFRNPRSAFTFFNYLFDQGRLVDFVNHQTFFPTRHEFHDYLQWAARRVDADVRYGTAVETVRGIRGDDGVIDRFEVRTADGSTVIARNVVMGAGLRERIPEWANPSARCFHNHQFLFRLGEMPAPVHHRFVVLGAGQSAAEIVQYLHGN", "soluble on expression in E. coli": "not soluble"},
      {"sequence": "MAYFIDRRLNGKNKSTVNRQRFLRRYKSQIKQSISEAINKRSVTDIESGESVSIPNADINEPMFHQGRGGHRHRVHPGNDHFVQNDKIERPQGGGGSGSGQGDASKDGEGDDEFVFQISKDEYLDLLFEDLALPNLKKTQHRQMTEYKMHRAGYTANGVPANISVVRSLQNSLARRMAMTAGKRRTLHELEESLEQLAYTEPAQLLEEERLREDIAELRKKIARVPFIDTFDLRYKNYERRAEPSSQAVMFCLMDVSGSMDQATKDMAKRFYILLYLFLSRNYKNVDVVYIRHHTQAKEVDEQEFFYSQETGGTIVSSALKLMEEVVRERYDPSQWNIYAAQASDGDNWADDSPLCHQILASKLLPMVRYYSYIEITRRSHQTLWREYETLRDTFDNFAMQHIRDQDDIYPVFRELFRKQTVGHLEHHHHHH", "soluble on expression in E. coli": "not soluble"},
      {"sequence": "MSLKALHFGAGNIGRGFIGKLLADAGIQLTFADVNQVVLDALNARHSYQVHVVGETEQVDTVSGVNAVSSIGDDVVDLIAQVDLVTTAVGPVVLERIAPAIAKGQVKRKEQGNESPLNIIACENMVRGTTQLKGHVMNALPEDAKAWVEEHVGFVDSAVDRIVPPSASATNDPLEVTVETFSEWIVDKTQFKGALPNIPGMELTDNLMAFVERKLFTLNTGHAITAYLGKLAGHQTIRDAILDEKIRAVVKGAMEESGAVLIKRYGFDADKHAAYIQKILGRFENPYLKDDVERVGRQPLRKLSAGDRLIKPLLGTLEYGLPHKNLIEGIAAAMHFRSEDDPQAQELAALIADKGPQAALAQISGLDANSEVVSEAVTAYKAMQEGGSHHHHHH", "soluble on expression in E. coli": "soluble"},
      {"sequence": "MSLEKQIESYYQEIAQLIIDMIPEEWAEVRFYAQEDHDGWKIFFFHYLSASSDEWTKDIDIRDVIKVPQDEFMEKYNELSFCISDFRKDYAEAFGEPWMSFQMTFYASGKFNIDFYYDKNPFDTFLTRLAWQYEHFGTIPEDSFYKETLNEYLEEKAQGKRYPFLEPLKEEEGHHHHHH", "soluble on expression in E. coli": "soluble"},
      {"sequence": "MGSDKIHHHHHHMFETITPESIKENILNELALVDVREGSYTNNLVSPTALAIWKLYDSLNALIPMVYVDETSGVYIDKKAAHYGITRKSGTKATAVLHFTGVDGKVVPKGTVFLTGDGLEFVTESAVTITAGAARTTAIAAEAGEAYNVPGGSITQQIVSISGLTGVTNDAAVGGTDPESDKSLVERLYAYLRKPATSGNVYHYEQWALAVDGVGGVKVAPLWNGPGTVKVLIVSPAKAPVDQEVVTRCADHIQQNRPIGAAVTVESASALMINVEATITIESTTTKSAVKEAFANSLNAYLQSIAFEKYELIYNRLAFMLLDIEGVIDYEDLTVNGGTSNITIAANEVPVAGMVVIS", "soluble on expression in E. coli": "not soluble"},
      {"sequence": "MSLSVAIRVKDLTKKYKLYQKRSERLANAFGKEKNIKEFYALKGVSFEISKGECVGIIGHNGAGKSTLLKLLTGVAFPTSGEIEINGRLASMLELGSGFNPELTGMENIYFNGSLNGLTKEEIDGKLKDILEFADIGNFIEQPVKNYSSGMFARLAFAVAINVDPDILIVDEILSVGDVGFQVKCMEKFNEFKKKGKTILYVSHGLGTVKKFCDRAIWLQKGEVVDDGNSVIVVERYYNLNFNPANIEQLKDHKSDIINSIAVKSNTKNVEYLEKLDLEVEYDLISNDLKDPNIVLEFRKTDYEPGTTRGNDQFVCGINSKDNIKNIPFNLGVNKLKVSLNKVNLVAGVYYIDFVLRDGEEEVYRKINGYSFTLNEGHHHHHH", "soluble on expression in E. coli": "soluble"},
      {"sequence": "MFRNNYDGDTVTFSPTGRLFQVEYALEAIKQGSVTVGLRSNTHAVLVALKRNADELSSYQKKIIKCDEHMGLSLAGLAPDARVLSNYLRQQCNYSSLVFNRKLAVERAGHLLCDKAQKNTQSYGGRPYGVGLLIIGYDKSGAHLLEFQPSGNVTELYGTAIGARSQGAKTYLERTLDTFIKIDGNPDELIKAGVEAISQSLRDESLTVDNLSIAIVGKDTPFTIYDGEAVAKYI", "soluble on expression in E. coli": "soluble"}
    ]}
  ]
}
